B1: PMO-03328 (enzyme)
chain: HYTFPKVWANSGTTADWQYVRRADNWQNNGFVDNVNSQQIRCFQSTHSPAQSTLSVAAGTTITYGAAPSVYHPGPMQFYLARVPDGQDINSWTGEGAVWFKIYHEQPTFGSQLTWSSNGKSSFPVKIPSCIKSGSYLLRAEHIGLHVAQSSGAAQFYISCAQLSITGGGSTEPGANYKVSFPGAYKASDPGILININYPVPTSYKNPGPSVFTC
B2: PMO-01867 (enzyme)
chain: HAIFQQLWVDGVDYGSTCNRLPTSNSPVTNVGSRDVVCNAGTRGVSGKCPVKAGGTVTVEMHQQPGDRSCKSEAIGGAHWGPVQIYLSKVSDASTADGSSGGWFKIFSDAWSKKSGGRVGDDDNWGTRDLNACCGRMDVLIPKDLPSGDYLLRAEALALHTAGQSGGAQFYISCYQITVSGGGSANYATVKFPGAYRASDPGIQINIHAVVSNYVAPGPAVVAGGVTKQAGSGCIGCESTCKVGSSPSAVAPGGKPASGGSDGNAPEVAEPSGGEGSPSAPGACEVAAYGQCGGDQYSGCTQCASGYTCKAVSPPYYSQCAPTS
B3: PMO-08760 (enzyme)
chain: HATFQALWVDGADYGSQCARVPPSNSPVTDVTSNAMRCNTGTSPVAKKCPVKAGSTVTVEMHQQANDRSCSSEAIGGAHYGPVLVYMSKVSDAASADGSSGWFKIFEDTWAKKPSSSSGDDDFWGVKDLNSCCGKMQVKIPSDIPAGDYLLRAEVIALHTAASAGGAQLYMTCYQISVTGGGSATPATVSFPGAYKSSDPGILVDIHSAMSTYVAPGPAVYSGGSSKKAGSGCVGCESTCKVGSGPTGTASAVPVASTSAAAGGGGGGGSGGCSVAKYQQCGGTGYTGCTSCASGSTCSAVSPPYYSQCV
B4: PMO-02916 (enzyme)
chain: HTIFQKVSVNGADQGQLKGIRAPANNNPVTDVMSSDIICNAVTMKDSNVLTVPAGAKVGHFWGHEIGGAAGPNDADNPIAASHKGPIMVYLAKVDNAATTGTSGLKWFKVAEAGLSNGKWAVDDLIANNGWSYFDMPTCIAPGQYLMRAELIALHNAGSQAGAQFYIGCAQINVTGGGSASPSNTVSFPGAYSASDPGILINIYGGSGKTDNGGKPYQIPGPALFTCPAGGSGGSSPAPATTASTPKPTSASAPKPVSTTASTPKPTNGSGSGTGAAHSTKCGGSKPAATTKASNPQPTNGGNSAVRAAALYGQCGGKGWTGPTSCASGTCKFSNDWYSQCLP

biological target: cellobiose dehydrogenase IIA from N. crassa (N. crassa)

| Specific activity of H2O2 production (Amplex Red/horseradish peroxidase assay) with CDH IIA (0.3 uM, 500 uM cellobiose) as reductant [U g^-1] | Binder |
| --- | --- |
| 15.5 | B1 |
| 1.07 | B2 |
| 1.53 | B3 |
| 1.82 | B4 |

Reference: PMC3500269
